T1: DnaA (M. tuberculosis H37Ra, UniProt P9WNW3 1-507)
T1 construct: also called DnaA protein
T1 sequence: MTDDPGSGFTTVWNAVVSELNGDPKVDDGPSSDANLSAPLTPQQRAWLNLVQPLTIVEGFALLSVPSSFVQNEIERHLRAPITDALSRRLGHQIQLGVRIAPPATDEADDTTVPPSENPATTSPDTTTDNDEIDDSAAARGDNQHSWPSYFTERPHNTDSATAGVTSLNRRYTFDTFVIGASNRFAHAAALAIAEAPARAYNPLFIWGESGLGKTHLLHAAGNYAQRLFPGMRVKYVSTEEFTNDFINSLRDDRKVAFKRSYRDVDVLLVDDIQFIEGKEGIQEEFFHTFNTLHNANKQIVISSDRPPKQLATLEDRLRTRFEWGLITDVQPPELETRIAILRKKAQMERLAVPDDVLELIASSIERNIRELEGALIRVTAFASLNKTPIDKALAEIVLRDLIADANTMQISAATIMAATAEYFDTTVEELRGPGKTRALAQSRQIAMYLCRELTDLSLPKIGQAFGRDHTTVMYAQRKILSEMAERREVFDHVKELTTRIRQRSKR

B1: NapM (Rv0047c), nucleoid-associated protein (natural protein)
chain: MLELAILGLLIESPMHGYELRKRLTGLLGAFRAFSYGSLYPALRRMQADGLIAENAAPAGTPVRRARRVYQLTDKGRRRFGELVADTGPHNYTDDGFGVHLAFFNRTPAEARMRILEGRRRQVEERREGLREAVARASSSFDRYTRQLHQLGLESSEREVKWLNELIAAERAAPNPAEQT

Legend:
[1] = target: DnaA (M. tuberculosis H37Ra) (UniProt P9WNW3); test: SPR; DnaA immobilised on CM5 chip (5.7 μM), NapM proteins passed over; Biacore 3000; 10 mM HEPES, 150 mM NaCl, 3 mM EDTA, 0.01% surfactant P20, pH 7.4; 25 °C
DnaA = target: T1, DnaA; test: as above; details: both partners purified

Molecule	Kd [1] [nM]	Kd (DnaA) [nM]
NapM C-terminal domain (CTD) (domain or fragment)	500	
B1		380

— PMC6377630, “NapM enhances the survival of Mycobacterium tuberculosis under stress and in macrophages” (Communications Biology, 2019)
